Target: recombinant human HER2 S310F ECD protein (human) (UniProt P04626)
Assay: SPR, Biacore 8K, 37 C, antibody captured by anti-human Fc on CM4, antigen as analyte, 1:1 model

B1: MHR0060/CD3 (bispecific antibody, human IgG1, kappa, N297A)
heavy 1: QSVEESGGRLVTPGTPLTLTCTVSGFSLSSYAMGWVRQAPGKGLEYIGIISSSGSTYYANWAKGRFTISKTSTTVDLKITSPTTEDTATYFCARGVDIYGHPYATPYGMDLWGPGTLVTVSSASTKGPSVFPLAPSSRSTSESTAALGCLVKDYFPEPVTVSWNSGALTSGVHTFPAVLQSSGLYSLSSVVTVPSSSLGTKTYTCNVDHKPSNTKVDKRVEPKSCDKTHTCPPCPAPELRRGPKVFLFPPKPKDTLMISRTPEVTCVVVDVSQEDPEVQFNWYVDGVEVHNAKTKPREEQFASTYRVVSVLTVLHQDWLNGKEYKCKVSNKGLPSSIEKTISKAKGQPREPQVYTLPPSREEMTKNQVSLTCLVKGFYPSDIAVEWESNGQPENNYKTTPPYLDSDGSFFLYSKLTVDKSRWQEGNVFSCSVMHEALHNHYTQESLSLSP
light 1: EVVMTQTPASVEVAVGGTVTIKCQASQSISSYLAWYQQKPGQPPKLLIYYASTLASGVPSRFKGSGSGTEFTLTISDLECDDAATYYCQSNYGSSSSSYEDTFGGGTKVEIKRTVAAPSVFIFPPSDEQLKSGTASVVCLLNNFYPREAKVQWKVDNALQSGNSQESVTEQDSKDCTYSLSSTLTLSKADYEKHKVYACEVTHQGLSSPVTKSFNRGEC
heavy 2: QVQLVESGGGVVQPGGSLRLSCAASGFTFSNAWMHWVRQAPGKGLEWVAQIKDKSQNYATYVAESVKGRFTISRADSKNSIYLQMNSLKTEDTAVYYCRYVHYAAGYGVDIWGQGTTVTVSSASTKGPSVFPLAPSSRSTSESTAALGCLVKDYFPEPVTVSWNSGALTSGVHTFPAVLQSSGLYSLSSVVTVPSSSLGTKTYTCNVDHKPSNTKVDKRVEPKSCDKTHTCPPCPAPELRRGPKVFLFPPKPKDTLMISRTPEVTCVVVDVSQEDPEVQFNWYVDGVEVHNAKTKPREEQFASTYRVVSVLTVLHQDWLNGKEYKCKVSNKGLPSSIEKTISKAKGQPREPQVYTLPPSRKEMTKNQVSLTCLVKGFYPSDIAVEWESNGQPENNYKTTPPYLDSDGSFFLYSKLTVDKSRWQEGNVFSCSVMHEALHNHYTQKSLSLSP
light 2: DIVMTQSPLSLPVTPGEPASISCRSSQPLVHSNRNTYLHWYQQKPGQAPRLLIYKVSNRFSGVPDRFSGSGSGTDFTLKISRVEAEDVGVYYCGQGTQVPYTFGQGTKLEIKRTVAAPSVFIFPPSDEQLKSGTASVVCLLNNFYPREAKVQWKVDNALQSGNSQESVTEQDSKDSTYSLSSTLTLSKADYEKHKVYACEVTHQGLSSPVTKSFNRGEC
- Kd: 40.4 nM
